The source of these data is patent US20220380464A1 (Genmab, published 2022).

Residue numbers refer to the chain shown, from its start. In names and notes the source's numbering stands.

The labels stand for the following.
B1: UniTE-huCD3-H1L1-LT41K (antibody, V domains shown)
VH: EVKLVESGGGLVQPGGSLRLSCAASGFTFNTYAMNWVRQAPGKGLEWVARIRSKYNNYATYYADSVKDRFTISRDDSKSSLYLQMNNLKTEDTAMYYCVRHGNFGNSYVSWFAYWGQGTLVTVSS
VL: not shown
notes: also called UniTE-huCD3-H1L1-LT41K (WT); UniTE-huCD3-H1L1-T41K
B2: UniTE-huCD3-H1L1-Y114M-LT41K (antibody, V domains shown)
VH: B1 VH with Y114M
VL: not shown
notes: Monovalent UniBody-TE format
B3: UniTE-huCD3-H1L1-N57E-LT41K (antibody, V domains shown)
VH: B1 VH with N57E
VL: not shown
notes: Monovalent UniBody-TE format
B4: UniTE-huCD3-H1L1-H101N-LT41K (antibody, V domains shown)
VH: B1 VH with H101N
VL: not shown
notes: Monovalent UniBody-TE format
B5: UniTE-huCD3-H1L1-S110G-LT41K (antibody, V domains shown)
VH: B1 VH with S110G
VL: not shown
notes: Monovalent UniBody-TE format
B6: UniTE-huCD3-H1L1-G105P-LT41K (antibody, V domains shown)
VH: B1 VH with G105P
VL: not shown
notes: Monovalent UniBody-TE format
B7: UniTE-huCD3-H1L1-Y114V-LT41K (antibody, V domains shown)
VH: B1 VH with Y114V
VL: not shown
B8: UniTE-huCD3-H1L1-S110A-LT41K (antibody, V domains shown)
VH: B1 VH with S110A
VL: not shown
notes: Monovalent UniBody-TE format
B9: UniTE-huCD3-H1L1-T31P-LT41K (antibody, V domains shown)
VH: B1 VH with T31P
VL: not shown
notes: Monovalent UniBody-TE format
B10: UniTE-huCD3-H1L1-H101I-LT41K (antibody, V domains shown)
VH: B1 VH with H101I
VL: not shown
notes: Monovalent UniBody-TE format
B11: UniTE-huCD3-H1L1-T31M-LT41K (antibody, V domains shown)
VH: B1 VH with T31M
VL: not shown
notes: Monovalent UniBody-TE format
B12: UniTE-huCD3-H1L1-H101G-LT41K (antibody, V domains shown)
VH: B1 VH with H101G
VL: not shown
notes: Monovalent UniBody-TE format
B13: UniTE-huCD3-H1L1-H101F-LT41K (antibody, V domains shown)
VH: B1 VH with H101F
VL: not shown
notes: Monovalent UniBody-TE format
B14: UniTE-huCD3-H1L1-Y32A-LT41K (antibody, V domains shown)
VH: B1 VH with Y32A
VL: not shown
notes: Monovalent UniBody-TE format
B15: UniTE-huCD3-H1L1-Y114R-LT41K (antibody, V domains shown)
VH: B1 VH with Y114R
VL: not shown
notes: Monovalent UniBody-TE format
B16: UniTE-huCD3-H1L1-H101K-LT41K (antibody, V domains shown)
VH: B1 VH with H101K
VL: not shown
notes: Monovalent UniBody-TE format
B17: UniTE-huCD3-H1L1-T31A-LT41K (antibody, V domains shown)
VH: B1 VH with T31A
VL: not shown
notes: Monovalent UniBody-TE format
B18: IgG1-huCD3-Y114R-FEAL (antibody, V domains shown)
VH: B1 VH with Y114R
VL: not shown
B19: IgG1-huCD3-H101N-FEAL (antibody, V domains shown)
VH: B1 VH with H101N
VL: not shown
B20: IgG1-huCD3-G105P-FEAL (antibody, V domains shown)
VH: B1 VH with G105P
VL: not shown
B21: IgG1-huCD3-T31P-FEAL (antibody, V domains shown)
VH: B1 VH with T31P
VL: not shown
B22: IgG1-huCD3-Y114V-FEAL (antibody, V domains shown)
VH: B1 VH with Y114V
VL: not shown
B23: IgG1-huCD3-N57E-FEAL (antibody, V domains shown)
VH: B1 VH with N57E
VL: not shown
B24: IgG1-huCD3-Y32A-FEAL (antibody, V domains shown)
VH: B1 VH with Y32A
VL: not shown
B25: IgG1-huCD3-S110A-FEAL (antibody, V domains shown)
VH: B1 VH with S110A
VL: not shown
B26: IgG1-huCD3-T31M-FEAL (antibody, V domains shown)
VH: B1 VH with T31M
VL: not shown
B27: IgG1-huCD3-H101K-FEAL (antibody, V domains shown)
VH: B1 VH with H101K
VL: not shown
B28: IgG1-huCD3-S110G-FEAL (antibody, V domains shown)
VH: B1 VH with S110G
VL: not shown
B29: IgG1-huCD3-Y114M-FEAL (antibody, V domains shown)
VH: B1 VH with Y114M
VL: not shown
B30: IgG1-huCD3-H101L-FEAL (antibody, V domains shown)
VH: B1 VH with H101L
VL: not shown

T2 sequence (P07766 23-207 limits assumed): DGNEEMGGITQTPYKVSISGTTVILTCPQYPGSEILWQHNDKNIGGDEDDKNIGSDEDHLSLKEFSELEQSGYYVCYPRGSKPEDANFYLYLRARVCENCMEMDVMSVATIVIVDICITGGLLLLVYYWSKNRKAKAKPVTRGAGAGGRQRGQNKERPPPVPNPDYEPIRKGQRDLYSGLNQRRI

The first assay deals with T1, CD3ε27-GSKa (human).
T1 construct: also called Mature CD3ε27-GSKa
T1 sequence (chain, as listed by the source limits assumed): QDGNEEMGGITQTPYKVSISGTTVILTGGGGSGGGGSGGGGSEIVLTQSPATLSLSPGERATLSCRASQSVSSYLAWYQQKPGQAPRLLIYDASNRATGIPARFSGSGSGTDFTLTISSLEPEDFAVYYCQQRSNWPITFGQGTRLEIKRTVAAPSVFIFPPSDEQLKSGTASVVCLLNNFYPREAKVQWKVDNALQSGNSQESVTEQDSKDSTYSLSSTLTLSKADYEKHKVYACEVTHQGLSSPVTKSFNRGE
Nature of the assay: BLI (Octet), summary table repeating Table 4. The method, then:
(§1) Experiments were carried out while shaking at 1000 rpm and at 30° C.
A word on the Kd: it is the concentration at which binding is half-saturated. Regarding B1, binding was put at a Kd of 34 nM.
Same read-out and setting: the value for B2 was 76 nM; that for B3 was 24 nM; that for B4 was 200 nM.
On the same count and under the same terms, for B5 the value was 61 nM; for B6, 35 nM; for B7, 75 nM.
The molecule B8 registered a Kd of 320 nM.
The same measure, in the same setting: the value for B9 was 49 nM; that for B10 was 220 nM; that for B11 was 200 nM.
Still for that read-out and setting: for B12 the value was 970 nM.

Another assay has as its target T2, human CD3 on human T cells (human, UniProt P07766 23-207).
T2 construct: Natural CD3/TCR complex on T cells isolated from human donor buffy coats; The other chains of the complex (CD3γ, CD3δ, CD3ζ, polyclonal TCR) are also present on the cells
Nature of the assay: flow cytometry on human T cells, PE anti-human IgG, GM-PE. (Flow cytometry measures light scatter and fluorescence of single cells or particles in a stream.)
Experimental: (§2) T cells were Isolated from a buffy coat fraction of anti-coagulated human donor blood samples and resuspended in PBS/0.1% BSA/0.02% azide at 1.8×10E6 cells/mL. 50 μL of T cell suspension and 50 μL of the antibody dilutions were combined in a 96 well plate on ice, Incubated for 30 min at 4° C. and washed twice with PBS/0.1% BSA/0.02% azide. […] The cells were resuspended in 120 μL PBS/0.1% BSA/0.02% azide and PE geometric Mean Fluorescence Intensity was measured. Binding curves were analyzed using non-linear regression (sigmoidal dose-response with variable slope) using GraphPad Prism V5.04 software (GraphPad Software, San Diego, Calif., USA) and apparent affinity (KD) was derived from the concentration at half-maximal binding.
B13: the binding result is “no binding (tested: 5000 ng/mL)”.

The next assay deals with T2, human CD3 on human T cells. Nature of the assay: flow cytometry on isolated human T cells, PE anti-human IgG detection.
Experimental: as §2
On to B1, for which the “Tcell binding average at 5000ng/ml (Geometric MFI)” value (“Tcell binding average at 5000ng/ml” below) was 13200 Geometric MFI.
With B13, the “Tcell binding average at 5000ng/ml” value is 641 Geometric MFI.
Regarding B14, the “Tcell binding average at 5000ng/ml” value turned out to be 719 Geometric MFI.
Same read-out and setting: for B2 the value was 3830 Geometric MFI.
B15: the “Tcell binding average at 5000ng/ml” value is 6200 Geometric MFI.
For the molecule B16, the “Tcell binding average at 5000ng/ml” value worked out at 1320 Geometric MFI.
Same read-out and setting: the value for B17 was 10200 Geometric MFI.
For the molecule B3, the “Tcell binding average at 5000ng/ml” value was determined as 8490 Geometric MFI.
Still for that read-out and setting: the value for B4 was 848 Geometric MFI.
Regarding B5, the “Tcell binding average at 5000ng/ml” value stood at 949 Geometric MFI.
Consider B6, for which the “Tcell binding average at 5000ng/ml” value came out at 10500 Geometric MFI.
With B7, the “Tcell binding average at 5000ng/ml” value was determined as 6020 Geometric MFI.
Still for that read-out and setting: the value for B8 was 1660 Geometric MFI; that for B9 was 4290 Geometric MFI; that for B11 was 1920 Geometric MFI.
The same measure, in the same setting: for B12 the value was 492 Geometric MFI.

The target in another assay is T1, CD3ε27-GSKa. Kind of assay: BLI (Octet HTX), UniTE antibody on anti-human Fc sensors, CD3ε27-GSKa in solution, 1:1 fit. The method, then: as §1
B1 showed a Ka of 3e+07 M⁻¹ and a Kd of 34 nM.
The molecule B2 displayed a Ka of 1.3e+07 M⁻¹ and an equilibrium dissociation constant (Kd) of 76 nM.
The corresponding values for B3 are 4.1e+07 M⁻¹ and 24 nM.
On the same counts, the results for B4 are 5.1e+06 M⁻¹ and 200 nM.
On the same counts, the results for B5 are 1.6e+07 M⁻¹ and 61 nM.
With B6, the Ka worked out at 2.8e+07 M⁻¹ and the Kd was 35 nM.
The corresponding values for B7 are 1.3e+07 M⁻¹ and 75 nM.
The corresponding values for B8 are 3.1e+06 M⁻¹ and 320 nM.
Take B9: the Ka is 2e+07 M⁻¹ and the Kd is 49 nM.
On the same counts, the results for B10 are 4.6e+06 M⁻¹ and 220 nM.
The corresponding values for B11 are 5.1e+06 M⁻¹ and 200 nM.
The corresponding values for B12 are 1e+06 M⁻¹ and 970 nM.

In a further assay the target is T1, CD3ε27-GSKa. Nature of the assay: BLI (Octet HTX), IgG on anti-human Fc sensors, CD3ε27-GSKa 1000-1.4 nM in solution, 1:1 fit, average. The method, then: as §1
Data was analyzed with ForteBio Data Analysis Software v8.1, using the 1:1 model and a global full fit with 1000 s association time and 100 s dissociation time. […] Data traces with a response <0.05 nm were excluded from analysis.
A general note: In BLI a coated tip is dipped into the sample, and binding shifts an interference pattern.
A word on the pKD: it is −log10 of the KD, conventionally taken in molar units. A low value points to a large KD. As for B18, binding was put at a Kd of 46 nM and the pKD worked out at 7.3.
The corresponding values for B19 are 45 nM and 7.3.
On the same counts, the results for B20 are 5 nM and 8.3.
The corresponding values for B21 are 42 nM and 7.4.
B22: the Kd is 29 nM and the pKD was determined as 7.5.
Molecule B23 registered a dissociation constant (Kd) of 91 nM and a pKD of 7.
As for B24, the Kd came to 105 nM and the pKD was 7.
The molecule B25 showed a Kd of 72 nM and a pKD of 7.1.
On the same counts, the results for B26 are 99 nM and 7.
The corresponding values for B27 are 120 nM and 6.9.
On the same counts, the results for B28 are 153 nM and 6.8.
In turn, B29 had a Kd of 42 nM and a pKD of 7.4.
On to B30, for which the Kd came to 107 nM and the pKD was found to be 7.
